Patent US20160208003A1 (AFFITECH RESEARCH, published 2016)

T1: mouse CCR4 (mouse, UniProt P51680 1-360)
T1 construct: whole, on cells; also called murine CCR4
T1 sequence (looked up): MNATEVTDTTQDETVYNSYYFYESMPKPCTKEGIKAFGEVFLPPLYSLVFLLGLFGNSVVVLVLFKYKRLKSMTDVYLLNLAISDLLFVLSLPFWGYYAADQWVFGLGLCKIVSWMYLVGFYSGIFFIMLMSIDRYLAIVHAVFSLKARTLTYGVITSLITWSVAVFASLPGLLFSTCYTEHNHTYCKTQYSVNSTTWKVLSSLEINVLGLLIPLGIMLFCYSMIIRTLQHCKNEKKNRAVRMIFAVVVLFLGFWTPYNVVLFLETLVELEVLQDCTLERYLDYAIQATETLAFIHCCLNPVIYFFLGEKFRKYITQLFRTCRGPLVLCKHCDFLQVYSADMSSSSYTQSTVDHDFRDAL

T2: human CC chemokine receptor 4 (CCR4) (human, UniProt P51679 1-360)
T2 construct: whole, on cells; Always presented on cells; also called CD194; human CCR4
T2 sequence (looked up): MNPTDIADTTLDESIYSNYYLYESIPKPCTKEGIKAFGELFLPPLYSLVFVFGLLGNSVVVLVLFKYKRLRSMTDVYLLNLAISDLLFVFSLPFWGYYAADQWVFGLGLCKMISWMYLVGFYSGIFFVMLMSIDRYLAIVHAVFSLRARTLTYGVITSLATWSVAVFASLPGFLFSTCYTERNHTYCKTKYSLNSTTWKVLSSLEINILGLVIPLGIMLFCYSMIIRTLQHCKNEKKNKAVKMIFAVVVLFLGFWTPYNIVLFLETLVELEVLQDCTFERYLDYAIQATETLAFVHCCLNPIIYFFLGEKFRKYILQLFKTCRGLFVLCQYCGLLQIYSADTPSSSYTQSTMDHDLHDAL

T3: monkey (Macaca mulatta) CCR4 (monkey (Macaca mulatta), UniProt F7GUA3 1-360)
T3 construct: also called monkey CCR4
T3 sequence: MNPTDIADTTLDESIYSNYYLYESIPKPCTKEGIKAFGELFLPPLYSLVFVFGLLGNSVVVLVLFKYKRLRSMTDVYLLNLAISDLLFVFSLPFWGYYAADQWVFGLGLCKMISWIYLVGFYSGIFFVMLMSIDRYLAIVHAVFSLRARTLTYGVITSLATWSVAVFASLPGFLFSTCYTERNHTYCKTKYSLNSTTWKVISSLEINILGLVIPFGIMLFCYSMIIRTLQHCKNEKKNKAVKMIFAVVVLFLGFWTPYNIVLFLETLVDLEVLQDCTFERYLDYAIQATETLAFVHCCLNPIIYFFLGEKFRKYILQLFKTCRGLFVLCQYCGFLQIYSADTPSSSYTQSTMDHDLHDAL

B1: 9E10J IgG (full length human IgG1, lambda) (antibody, V domains shown)
VH: QVQLVQSGAEVKKPGSSVKVSCKASGGTFSSYAISWVRQAPGQGLEWMGGIIPIFGTANYAQKFQGRVTMTRDTSTSTVYMELSSLRSEDTAVYYCARRGGSYFDYWGQGTLVTVSS
VL: SYVLTQPPSASGTPGQSVTISCSGSTSNIGSHYVFWYQQLPGTAPRLLIYRNHQRPSGVPDRLSGSKSGTSASLAISGLRSEDEADYYCAVWDDTLSGWVFGGGTKLTVLG
notes: also called IgG 9E10J; unmodified 9E10J
B2: 9E IgG (full length human IgG1, lambda) (antibody, V domains shown)
VH: QVQLVQSGAEVKKPGSSVKVSCKASGGTFSNYAISWVRQAPGQGLEWMGGIIPIFGTANYAQKFQGRVTITADESTSTAYMELSSLRSEDTAVYYCARRGGSYFDYWGQGTLVTVSS
VL: SYVLTQPPSASGTPGQSVTISCSGSTSNIGSHYVFWYQQLPGTAPRLLIYRNHQRPSGVPDRLSGSKSGTSASLAISGLRSEDEADYYCAVWDDTLSGWVFGGGTKLTVLG
notes: also called IgG 9E; IgG1 9E

What was measured:
mouse CCR4 = target: T1, mouse CCR4; assay: flow cytometry on HEK-293T/17 cells transiently transfected with mouse CCR4, anti-human-IgG-PE detection
Experimental: (§1) For transient transfection, Hek293T/17 cells were seeded as 2×10^6 cells in a T75 (NUNC) flask. 48 h after seeding, the cells were transfected with Fugene (ROCHE). 40 μl Fugene and 16 μg DNA are used per T75. The cells were used for assays 48 h after transfection.
(§2) HEK-293T/17 cells, were transiently transfected either with pcDNA3.1 plasmid encoding human CCR4 or with pLNO plasmids (Norderhaug et al, 1997) encoding either mouse (GeneBank CAA62372) or monkey (Macaca mulatta) CCR4 (PubMed access number XP_001098807) using Fugene (Roche) as a transfection reagent. Non-transfected (CCR4 negative) cells served as a negative control. The cells were cultivated further for 48 hours under regular conditions described above. The cells were washed twice with PBS, detached from the culture flasks by incubating with Accutase (PAA laboratories, Linz, Austria) for 3 minutes at room temperature. The cells were then washed 2 times with PBS (400×g, 5 min, 4° C.) and resuspended in PBS containing 0.2% BSA and 0.09% NaN₃. 1×10⁵ cells per well were aliquoted into V-shaped 96-well plates (Griner Bio-One, Frikenhausen, Germany). Cells were centrifuged (400×g, 5 min, 4° C.) and resuspended in 50 μl of 10 μg/ml 9E or 9E10J, in PBS containing 0.2% BSA and 0.09% NaN3. The cells were incubated further at 4° C. for 60 min. The samples were then washed twice by centrifugation and re-suspension in 100 μl FACS buffer. […]

[1] = target: T2, human CC chemokine receptor 4 (CCR4); assay: calculated from the IC50; DT-40-CCR4+ cells, competitor 0.7 nM biotinylated IgG 9E
Experimental: (§3) DT40 and CCRF-CEM cells were cultivated as described in Example 2. The cells were harvested from culture flasks, washed 2 times with PBS (400×g, 5 min, 4° C.) and resuspended in PBS containing 0.2% BSA and 0.09% NaN3. 1×10^5 cells per well were aliquoted into V-shaped 96-well plates (Griner Bio-One, Frikenhausen, Germany). Cells were centrifuged (400×g, 5 min, 4° C.) and resuspended in 50 μl IgG 9E10J or KM3060var (dilution series starting at 5 μg/ml) mixed with biotinylated competitor antibody 9E (0.1 or 0.5 μg/ml). The cells were incubated for 2 hours at 4° C., mixing with a pipette every 45 min. The cells were washed three times with 150 μl PBS with 0.2% BSA and 0.09% NaN3 and stained with 3 μg/ml streptavidin PE (BD Biosciences) for 45 minutes at 4° C. Cells were washed, resuspended in 200 μl PBS with 0.2% BSA and 0.09% NaN3, and transferred to a U-shaped 96 well Costar (Corning, Schiphol-Rijik, The Netherlands) plate for flow cytometry using an FACS Canto II flow cytometer (BD Biosciences, Heidelberg, Germany).

[2] = target: T2, human CC chemokine receptor 4 (CCR4); assay: flow cytometry, IgG titration on CCRF-CEM cells, anti-human-PE, MFI
[3] = target: T3, monkey (Macaca mulatta) CCR4; assay: flow cytometry, 10 µg/ml antibody on HEK-293T/17 cells transiently transfected with monkey CCR4, anti-human-IgG-PE
Experimental: as §1, §2

[4] = target: T2, human CC chemokine receptor 4 (CCR4); assay: flow cytometry competition on CCRF-CEM cells; unlabelled IgG titrated, competitor 0.7 nM biotinylated IgG 9E
Experimental: Further competition experiments were carried out to assess whether or not the test antibodies recognise the same or overlapping epitopes, and to determine their relative affinities for CCR4. Antibodies 9E10J, 9E and KM3060var were tested using labelled 9E as a competitor.
as §3

Binder	binding result (mouse CCR4)	Kd [1]	EC50 (read off the curve) [2]	binding result [3]	IC50 [4]
B1	no binding (tested: 10 µg/ml)	50 pM	~100 pM	binds	70 pM
B2	no binding (tested: 10 µg/ml)	390 pM	~300 pM	binds	380 pM
